Legend:
[1] = target: extracellular region of human F158 FcγRIIIa with C-terminal 6x His-tag and GST-tag (human) (UniProt P08637); assay: SPR (Table 3, not reproduced); receptor immobilized, antibody flowed
[2] = target: T1, extracellular region of human FcγRIIIa, allotype not stated where cited (His/GST-tagged) (human) (UniProt P08637); assay: AlphaScreen, Figure 15; fold vs WT for FcγRIIIa divided by fold vs WT for FcγRIIb
[3] = target: T1, extracellular region of human FcγRIIIa, allotype not given (His/GST-tagged) (human); assay: AlphaScreen competition, Figure 15
[4] = target: human FcγRIIIa on PBMCs expressing heterozygous V158/F158 FcγRIIIa (human) (UniProt P08637); assay: cell-based or functional assay
[5] = target: extracellular region of human V158 FcγRIIIa with C-terminal 6x His-tag and GST-tag (human) (UniProt P08637); assay: SPR (Table 3, not reproduced); receptor immobilized, antibody flowed
[6] = target: extracellular region of human F158 FcγRIIIa with C-terminal 6x His-tag and GST-tag (human) (UniProt P08637); assay: SPR; receptor immobilized, antibody flowed

Chain of human FcγRIIIa on PBMCs expressing heterozygous V158/F158 FcγRIIIa (human) (P08637 17-254): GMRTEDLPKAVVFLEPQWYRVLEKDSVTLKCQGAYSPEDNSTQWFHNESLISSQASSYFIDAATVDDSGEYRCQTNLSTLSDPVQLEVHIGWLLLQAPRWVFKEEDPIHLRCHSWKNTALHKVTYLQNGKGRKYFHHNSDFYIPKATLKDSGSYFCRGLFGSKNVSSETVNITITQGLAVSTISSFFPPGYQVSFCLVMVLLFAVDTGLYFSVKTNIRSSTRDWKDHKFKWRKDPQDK
Chain of extracellular region of human F158 FcγRIIIa with C-terminal 6x His-tag and GST-tag (human) (P08637 17-208): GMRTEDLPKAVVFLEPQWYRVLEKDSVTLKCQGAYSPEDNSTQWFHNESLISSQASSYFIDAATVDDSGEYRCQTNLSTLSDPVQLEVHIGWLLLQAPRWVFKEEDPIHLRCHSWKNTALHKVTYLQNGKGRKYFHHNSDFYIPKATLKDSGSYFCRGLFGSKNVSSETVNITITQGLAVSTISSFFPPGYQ
T1 sequence (P08637 17-208): as above
Chain of extracellular region of human V158 FcγRIIIa with C-terminal 6x His-tag and GST-tag (human) (P08637 17-208 F176V): as the sequence (P08637 17-208) above, with F160V counted along it

Row | Substance | fold improvement over WT [1] [fold] | FcγRIIIa-fold (fold affinity relative to WT) [3] [fold] | ADCC log(EC50), DoHH-2 target cells [4] | fold enhancement in ADCC over WT alemtuzumab [4] [fold] | fold improvement over WT [5] [fold] | also measured
1 | I332E alemtuzumab (antibody) | 10.1 | – | – | – | – | –
2 | S239D/A330L/I332E Fc variant antibody (Figure 15; antibody context not stated) | – | 139 | – | – | – | FcγRIIIa-fold:FcγRIIb-fold ratio [2]: 18
3 | V264I/I332E alemtuzumab (antibody) | 14 | – | 0.6 | 2.5 | 4 | Kd [6]: 52 nM

Continued, in another order:

Row | fold improvement over WT [1] [fold] | FcγRIIIa-fold (fold affinity relative to WT) [3] [fold] | ADCC log(EC50), DoHH-2 target cells [4] | fold enhancement in ADCC over WT alemtuzumab [4] [fold] | fold improvement over WT [5] [fold] | Substance | also measured
4 | – | 192 | – | – | – | S239D/I332E Fc variant antibody (Figure 15; antibody context not stated) | –
5 | – | – | 0.49 | 3.3 | – | S239D/I332E alemtuzumab (antibody) | –
6 | 4.7 | – | – | – | 1.7 | S298A/E333A/K334A alemtuzumab (antibody) | –
